Assay results as given in patent US20250186614A1, “COMPACT DRUG RESPONSIVE DOMAINS FOR REGULATION OF FUNCTION/ABUNDANCE AND DELIVERY OF POLYPEPTIDE PAYLOADS” (OBSIDIAN THERAPEUTICS, INC., priority 2022, published 2025).
Substitutions are numbered along the chain they refer to. Numbers in names are those of the source.

Columns and labels:
Jurkat cells [1] = experiment: Tacrolimus serum experiments: dose response of FKBP13 constructs under different serum concentrations, GFP MFI; type: cell-based; details: increasing FBS, FIGS. 51-54
Protocol: Incubation with increasing FBS results in 2 fold increase in Ec50 with 80% FBS.

FKBP13 = target: T1, FKBP13 (Homo sapiens, UniProt P26885); details: read-out: binding affinity for FKBP13; cited from earlier work
T1 sequence (P26885 22-142): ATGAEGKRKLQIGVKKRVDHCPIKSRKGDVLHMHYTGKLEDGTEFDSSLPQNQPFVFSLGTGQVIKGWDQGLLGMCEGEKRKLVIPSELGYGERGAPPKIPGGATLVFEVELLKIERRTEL

[2] = clinically approved dosages 0.1-0.3 mg/kg of body weight, tissue/organ transplants; cited from earlier work
HEK-293T cells = experiment: Tacrolimus (FK506) response of FKBP13-AcGFP-mCherry constructs transiently transfected into HEK-293T cells, flow cytometry; type: cell-based; details: for AcGFP stabilization / fluorescence signal in response to FK506: 0, 1 or 10 μM FK506, 24 hours; for Fold Change: tacrolimus response of FKBP13 DRD-AcGFP construct, Table 3
From the text: The DRD in FKBP13-039 was a wildtype (WT) FKBP13 (i.e., a 98 amino acid fragment of SEQ ID NO: 1). […] The FKBP13-043, FKBP13-044, and FKBP13-045 constructs included DRD-genic mutations D90G, M54A and M96V, respectively, and three binding site mutations (Q72R, Q84E, and A117H).

Jurkat cells [3] = experiment: Tacrolimus dose response of FKBP13-AcGFP-mCherry constructs stably transduced into Jurkat cells, GFP MFI by flow cytometry; type: cell-based
Method in brief: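 GFP geometric MFI was read by flow cytometry in mCherry+ cells and curve-fitted against tacrolimus dose. Cells were Jurkat E6-1, lentivirus-transduced with FKBP13-AcGFP-mCherry fusion constructs until 10-25% mCherry-positive on day 5 post-transduction.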

HEK293 cells = experiment: Tacrolimus dose response of FKBP13 constructs transiently transfected into HEK293 cells, Celigo Image Cytometer; type: cell-based; details: for performance / drug responsiveness in tacrolimus dose response: FIGS. 5, 6, 8
From the text: In another experiment, several FKBP13 DRD constructs were transiently transfected into HEK293 cells, as described above, and analyzed using a Celigo Image Cytometer (Nexcelom, Lawrence, MA).
To test the effects of other substitutions instead of methionine at residue number 54 and leucine at position 93 FKBP13 DRD constructs were generated and were transiently transfected into HEK293 cells, as described above, and analyzed using a Celigo Image Cytometer (Nexcelom, Lawrence, MA).
In another experiment, to explore the possibility of further truncating FKBP13, constructs (FKBP-044, FKBP-083, FKBP-084, FKBP-085, and FKBP-086) were transiently transfected into HEK293 cells, as described above, and analyzed using a Celigo Image Cytometer (Nexcelom, Lawrence, MA). A combination of DRD-genic M54A with truncation of the N-terminal histidine lowers basal (FKBP-083).
In another experiment, several constructs (FKBP-044, FKBP-092, FKBP-093, FKBP-094, FKBP-095, FKBP-096 and FKBP-097) designed to explore additional DRD-genic mutations were transiently transfected into HEK293 cells, as described above, and analyzed using a Celigo Image Cytometer (Nexcelom, Lawrence, MA).
Other constructs (FKBP-091, FKBP-098, FKBP-099, FKBP-100, and FKBP-101) were transiently transfected into HEK293 cells, as described above, and analyzed using a Celigo Image Cytometer (Nexcelom, Lawrence, MA).
(§1) In another experiment, several constructs (FKBP-091, FKBP-102, FKBP-103, FKBP-104, FKBP-105 and FKBP-106), designed to combine the binding site mutation identified in FKBP-091 with novel DRD-genic mutations, were transiently transfected into HEK293 cells, as described above, and analyzed using a Celigo Image Cytometer (Nexcelom, Lawrence, MA). […]
as §1, with “several other” for “several”, “FKBP-107, FKBP-108, FKBP-109, FKBP-110,” for “FKBP-102, FKBP-103, FKBP-104, FKBP-105”, “FKBP-111),” for “FKBP-106),”

Jurkat cells [4] = experiment: Sirolimus (rapamycin) dose response of FKBP13 constructs stably transduced into Jurkat cells, flow cytometry; type: cell-based; details: rapamycin, Table 14
Protocol: Normalized EC50 values were calculated from the mCherry normalized GFP MFI values, which accounted for any differences in mCherry intensity between samples.

[5] = tacrolimus dose response, Jurkat cells stably transduced (FIG. 10), Table 5

C=CC[C@@H]1/C=C(\C)C[C@H](C)C[C@H](OC)[C@H]2O[C@@](O)(C(=O)C(=O)N3CCCC[C@H]3C(=O)O[C@H](/C(C)=C/[C@@H]3CC[C@@H](O)[C@H](OC)C3)[C@H](C)[C@@H](O)CC1=O)[C@H](C)C[C@@H]2OC [Tacrolimus, tacrolimus]
increase in Ec50 with 80% FBS (Jurkat cells [1]): 2 fold
Kd (FKBP13): 166 nM
Cmax [2]: 20 to 68 ng/mL

B1: FKBP-043: FKBP13 DRD Q72R, Q84E, A117H, D90G; SEQ ID NO: 6 (protein)
chain: HCPIKSRKGDVLHMHYTGKLEDGTEFDSSLPRNQPFVFSLGTGEVIKGWGQGLLGMCEGEKRKLVIPSELGYGERGHPPKIPGGATLVFEVELLKIER
modifications: Description of sequence: FKBP13-AcGFP-mCherry Fusion; Construct Name: FKBP-043; FKBP13 DRD in Construct : FKBP13 (mutated to match FKBP12 active site - Q72R Q84E A117H) (DRD - D90G)
AcGFP stabilization / fluorescence signal in response to FK506 (HEK-293T cells; FIG. 1B): increased more effectively
DRD activity (HEK-293T cells; FIG. 1B): had DRD activity
Fold Change (HEK-293T cells): 26.5

B2: FKBP-044: FKBP13 DRD Q72R, Q84E, A117H, M54A; SEQ ID NO: 7 (protein)
chain: B1 chain with M14A, G50D
modifications: Description of sequence: FKBP13-AcGFP-mCherry Fusion; Construct Name: FKBP-044; FKBP13 DRD in Construct : FKBP13 (mutated to match FKBP12 active site - Q72R Q84E A117H) (DRD - M54A)
AcGFP stabilization / fluorescence signal in response to FK506 (HEK-293T cells; FIG. 1B): increased more effectively
Fold Change (HEK-293T cells): 9.4
Fold Change (Jurkat cells [3]; tacrolimus dose response, Jurkat cells stably transduced (FIG. 4), Table 4): 12.6
Fold Change (Jurkat cells [3]; [5]): 11.805
EC50 and fold-change characteristics (Jurkat cells [3]; tacrolimus top concentration 10 μM, 24 hr, FIG. 2): best EC50 and fold-change characteristics

B3: FKBP-045: FKBP13 DRD Q72R, Q84E, A117H, M96V; SEQ ID NO: 8 (protein)
chain: B1 chain with G50D, M56V
modifications: Description of sequence: FKBP13-AcGFP-mCherry Fusion; Construct Name: FKBP-045; FKBP13 DRD in Construct : FKBP13 (mutated to match FKBP12 active site - Q72R Q84E A117H) (DRD - M96V)
AcGFP stabilization / fluorescence signal in response to FK506 (HEK-293T cells; FIG. 1B): increased more effectively
Fold Change (HEK-293T cells): 23.2

B4: FKBP-068: FKBP13 DRD Q72R, Q84E, A117H, M54S; SEQ ID NO: 24 (protein)
chain: B1 chain with M14S, G50D
modifications: Description of sequence: FKBP13-AcGFP-mCherry Fusion; Construct Name: FKBP-068; FKBP13 DRD in Construct : FKBP13 (mutated to match FKBP12 active site - Q72R Q84E A117H) (DRD - M54S)
Fold Change (Jurkat cells [3]; [5]): 43.62
performance / drug responsiveness in tacrolimus dose response (HEK293 cells): closest in performance to the original M54A substitution

B5: FKBP-083: FKBP13 trunc1 DRD Q72R, Q84E, A117H, M54A; SEQ ID NO: 33 (protein)
chain: CPIKSRKGDVLHAHYTGKLEDGTEFDSSLPRNQPFVFSLGTGEVIKGWDQGLLGMCEGEKRKLVIPSELGYGERGHPPKIPGGATLVFEVELLKIER
modifications: truncated (trunc1); Description of sequence: FKBP13-AcGFP-mCherry Fusion; Construct Name: FKBP-083; FKBP13 DRD in Construct : FKBP13 trunc1 (mutated to match FKBP12 active site - Q72R Q84E A117H) (DRD - M54A)
Basal (HEK293 cells; FIG. 7): lowers basal

B6: FKBP-091: FKBP13 DRD Q72R, Q84E, A117W, M54A; SEQ ID NO: 41 (protein)
chain: B1 chain with M14A, G50D, H77W
modifications: Description of sequence: FKBP13-AcGFP-mCherry Fusion; Construct Name: FKBP-091; FKBP13 DRD in Construct : FKBP13 (mutated to match FKBP12 active site Q72R Q84E A117W) (DRD - M54A)
EC90 (Jurkat cells [3]; read-out: Tacrolimus EC90 (Norm), tacrolimus, normalized, Table 14): 117 nM
EC90 (Jurkat cells [3]; read-out: Tacrolimus EC90, tacrolimus, Table 14): 111 nM
Fold Change (Jurkat cells [3]; [5]): 12.36
Fold Change (Jurkat cells [3]; tacrolimus, Jurkat cells stably transduced, Table 6): 11.29
Tacrolimus FC (Jurkat cells [3]; tacrolimus, fold change, Table 14): 12.4
performance / drug responsiveness in tacrolimus dose response (HEK293 cells): superior drug responsiveness
EC90 (Jurkat cells [4]; read-out: Rapamycin EC90): 398 nM
Rapamycin FC (Jurkat cells [4]; fold change): 3.2
EC90 (Jurkat cells [4]; normalized, read-out: Rapamycin EC90 (Norm)): 414 nM

B7: FKBP-039: FKBP13 (WT) fragment DRD-AcGFP-mCherry; SEQ ID NO: 2 (protein)
chain: B1 chain with R32Q, E44Q, G50D, H77A
modifications: Description of sequence: FKBP13-AcGFP-mCherry Fusion; Construct Name: FKBP-039; FKBP13 DRD in Construct : FKBP13 (WT)
Fold Change (HEK-293T cells): 4.9

B8: FKBP-040: FKBP13 DRD D90G; SEQ ID NO: 3 (protein)
chain: B1 chain with R32Q, E44Q, H77A
modifications: Description of sequence: FKBP13-AcGFP-mCherry Fusion; Construct Name: FKBP-040; FKBP13 DRD in Construct : FKBP13 (DRD - D90G)
Fold Change (HEK-293T cells): 1

B9: FKBP-041: FKBP13 DRD M54A; SEQ ID NO: 4 (protein)
chain: B1 chain with M14A, R32Q, E44Q, G50D, H77A
modifications: Description of sequence: FKBP13-AcGFP-mCherry Fusion; Construct Name: FKBP-041; FKBP13 DRD in Construct : FKBP13 (DRD - M54A)
Fold Change (HEK-293T cells): 7.8

B10: FKBP-042: FKBP13 DRD M96V; SEQ ID NO: 5 (protein)
chain: B1 chain with R32Q, E44Q, G50D, M56V, H77A
modifications: Description of sequence: FKBP13-AcGFP-mCherry Fusion; Construct Name: FKBP-042; FKBP13 DRD in Construct : FKBP13 (DRD - M96V)
Fold Change (HEK-293T cells): 1.3
